For this data set, the system named is Escherichia coli TOP10. Briefly: shrunken log2 fold change of peptide-encoding DNA abundance (4.5 h post-induction vs induction); higher = less antimicrobial activity (less host growth inhibition). Particulars: time post-induction: 4.5 h; library: site-saturation at positions 5, 18, 19, 20.
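Also: peptides expressed intracellularly from a pBAD plasmid library in pooled LB shake-flask culture, induced with 0.3% L-arabinose, DNA abundance read by NGS, three biological replicates, DESeq2 with apeglm shrinkage.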

Turning to RRIRKRPPRLPRPRPRPGEKPRP, the “shrunken log2 fold change” value stood at 0.015.

For RRIRYRPPRLPRPRPRPEKQPRP, the “shrunken log2 fold change” value is -0.000925.

Consider RRIRRRPPRLPRPRPRPAVQPRP, for which the “shrunken log2 fold change” value was 0.0814.

Regarding RRIRKRPPRLPRPRPRPDNWPRP, the “shrunken log2 fold change” value was 0.235.

For RRIRWRPPRLPRPRPRPAGQPRP, the “shrunken log2 fold change” value stood at 0.218.

For RRIRWRPPRLPRPRPRPLSFPRP, the “shrunken log2 fold change” value was -0.0327.

For the sequence RRIRNRPPRLPRPRPRPSCKPRP, the “shrunken log2 fold change” value came out at 0.065.

For RRIRDRPPRLPRPRPRPSKRPRP, the “shrunken log2 fold change” value was -0.273.

For RRIRYRPPRLPRPRPRPQWAPRP, the “shrunken log2 fold change” value was -0.00681.

Turning to RRIRPRPPRLPRPRPRPVFWPRP, the “shrunken log2 fold change” value was determined as 0.546.

With RRIRRRPPRLPRPRPRPPKPPRP, the “shrunken log2 fold change” value was found to be 0.824.

On to RRIRMRPPRLPRPRPRPAYRPRP, for which the “shrunken log2 fold change” value is 0.196.

With RRIRPRPPRLPRPRPRPMFKPRP, the “shrunken log2 fold change” value was -0.0861.

On to RRIRTRPPRLPRPRPRPWLIPRP, for which the “shrunken log2 fold change” value was 0.00287.

On to RRIRGRPPRLPRPRPRPDHIPRP, for which the “shrunken log2 fold change” value came to 0.199.

Take RRIRSRPPRLPRPRPRPKCRPRP: the “shrunken log2 fold change” value was found to be 0.0128.

For RRIRPRPPRLPRPRPRPHNLPRP, the “shrunken log2 fold change” value was -0.131.

On to RRIRFRPPRLPRPRPRPTPYPRP, for which the “shrunken log2 fold change” value is 0.0647.

Regarding RRIRDRPPRLPRPRPRPLTFPRP, the “shrunken log2 fold change” value was -0.212.

RRIRCRPPRLPRPRPRPVVGPRP: the “shrunken log2 fold change” value was -0.0604.

RRIRSRPPRLPRPRPRPFFMPRP: the “shrunken log2 fold change” value was -0.288.

In the case of RRIRRRPPRLPRPRPRPFVWPRP, the “shrunken log2 fold change” value was -0.218.

Consider RRIRRRPPRLPRPRPRPVWMPRP, for which the “shrunken log2 fold change” value was 0.561.

As for RRIRGRPPRLPRPRPRPMLCPRP, the “shrunken log2 fold change” value was 0.558.

On to RRIRRRPPRLPRPRPRPSCKPRP, for which the “shrunken log2 fold change” value is -0.398.

Consider RRIRSRPPRLPRPRPRPHHIPRP, for which the “shrunken log2 fold change” value is -1.12.

As to RRIRERPPRLPRPRPRPSSVPRP, the “shrunken log2 fold change” value was -0.306.

Take RRIRYRPPRLPRPRPRPRCGPRP: the “shrunken log2 fold change” value was -0.0223.

Consider RRIRLRPPRLPRPRPRPACVPRP, for which the “shrunken log2 fold change” value was found to be 0.131.

Consider RRIRMRPPRLPRPRPRPIRDPRP, for which the “shrunken log2 fold change” value is -0.261.

As to RRIRFRPPRLPRPRPRPHRQPRP, the “shrunken log2 fold change” value was -0.228.

For RRIRLRPPRLPRPRPRPMGLPRP, the “shrunken log2 fold change” value came out at 0.0182.

As to RRIRKRPPRLPRPRPRPFKSPRP, the “shrunken log2 fold change” value is -0.294.

Take RRIRFRPPRLPRPRPRPGATPRP: the “shrunken log2 fold change” value is 0.357.

Consider RRIRCRPPRLPRPRPRPMAAPRP, for which the “shrunken log2 fold change” value is 0.476.

For RRIRRRPPRLPRPRPRPHTFPRP, the “shrunken log2 fold change” value is -0.108.

Take RRIRERPPRLPRPRPRPGLWPRP: the “shrunken log2 fold change” value came to 0.168.

For RRIRHRPPRLPRPRPRPGHKPRP, the “shrunken log2 fold change” value is 0.0956.

With RRIRKRPPRLPRPRPRPDDKPRP, the “shrunken log2 fold change” value came out at 0.107.

As to RRIRDRPPRLPRPRPRPARIPRP, the “shrunken log2 fold change” value was 0.136.

For RRIRVRPPRLPRPRPRPLVHPRP, the “shrunken log2 fold change” value was -0.145.

As to RRIRVRPPRLPRPRPRPIQYPRP, the “shrunken log2 fold change” value was 0.0111.

RRIRYRPPRLPRPRPRPVTAPRP: the “shrunken log2 fold change” value was -0.298.

In the case of RRIRGRPPRLPRPRPRPNYKPRP, the “shrunken log2 fold change” value amounted to 0.211.

As for RRIRHRPPRLPRPRPRPCADPRP, the “shrunken log2 fold change” value was -0.12.

Turning to RRIRMRPPRLPRPRPRPVMGPRP, the “shrunken log2 fold change” value came to 0.387.

Consider RRIRVRPPRLPRPRPRPMNSPRP, for which the “shrunken log2 fold change” value is -0.675.

On to RRIRSRPPRLPRPRPRPVQDPRP, for which the “shrunken log2 fold change” value was 0.339.

With RRIRQRPPRLPRPRPRPIRDPRP, the “shrunken log2 fold change” value is -0.161.

Take RRIRIRPPRLPRPRPRPCNEPRP: the “shrunken log2 fold change” value was -0.0608.

Turning to RRIRNRPPRLPRPRPRPCPCPRP, the “shrunken log2 fold change” value was -0.0945.

RRIRERPPRLPRPRPRPRHEPRP: the “shrunken log2 fold change” value is -0.304.

As for RRIRFRPPRLPRPRPRPYQNPRP, the “shrunken log2 fold change” value was -0.0547.

In the case of RRIRSRPPRLPRPRPRPWFKPRP, the “shrunken log2 fold change” value was -0.504.

Regarding RRIRERPPRLPRPRPRPPLKPRP, the “shrunken log2 fold change” value turned out to be 0.322.

In the case of RRIRMRPPRLPRPRPRPEMWPRP, the “shrunken log2 fold change” value is 2.4.

RRIRQRPPRLPRPRPRPATTPRP: the “shrunken log2 fold change” value worked out at 0.351.

In the case of RRIRQRPPRLPRPRPRPRLEPRP, the “shrunken log2 fold change” value is 0.109.

Consider RRIRSRPPRLPRPRPRPDNKPRP, for which the “shrunken log2 fold change” value is -0.256.

On to RRIRFRPPRLPRPRPRPGDHPRP, for which the “shrunken log2 fold change” value came to 0.0283.

As to RRIRGRPPRLPRPRPRPIFLPRP, the “shrunken log2 fold change” value worked out at 0.0935.

For the sequence RRIRQRPPRLPRPRPRPCHWPRP, the “shrunken log2 fold change” value was found to be 0.018.

For the sequence RRIRERPPRLPRPRPRPAFGPRP, the “shrunken log2 fold change” value was 0.353.

Turning to RRIRFRPPRLPRPRPRPSREPRP, the “shrunken log2 fold change” value amounted to 1.17.

On to RRIRGRPPRLPRPRPRPTTPPRP, for which the “shrunken log2 fold change” value worked out at 0.681.

On to RRIRKRPPRLPRPRPRPYMEPRP, for which the “shrunken log2 fold change” value was -0.0534.

For the sequence RRIRCRPPRLPRPRPRPCCAPRP, the “shrunken log2 fold change” value turned out to be 0.242.

Take RRIRGRPPRLPRPRPRPLQNPRP: the “shrunken log2 fold change” value was 0.693.

In the case of RRIRSRPPRLPRPRPRPHREPRP, the “shrunken log2 fold change” value was -0.14.

Consider RRIRMRPPRLPRPRPRPMWVPRP, for which the “shrunken log2 fold change” value amounted to 0.0332.

Consider RRIRFRPPRLPRPRPRPHDPPRP, for which the “shrunken log2 fold change” value is -0.1.

As to RRIRIRPPRLPRPRPRPTFNPRP, the “shrunken log2 fold change” value was -0.595.

Consider RRIRLRPPRLPRPRPRPAQGPRP, for which the “shrunken log2 fold change” value came out at 0.376.

As for RRIRFRPPRLPRPRPRPRNCPRP, the “shrunken log2 fold change” value is -0.132.

For RRIRVRPPRLPRPRPRPMTKPRP, the “shrunken log2 fold change” value came out at 0.0648.

In the case of RRIRIRPPRLPRPRPRPAIAPRP, the “shrunken log2 fold change” value was -0.206.

As to RRIRLRPPRLPRPRPRPCDTPRP, the “shrunken log2 fold change” value is -0.131.

For the sequence RRIRQRPPRLPRPRPRPKHCPRP, the “shrunken log2 fold change” value was found to be 0.0753.

With RRIRVRPPRLPRPRPRPLDLPRP, the “shrunken log2 fold change” value is -0.0307.

For the sequence RRIRFRPPRLPRPRPRPQDGPRP, the “shrunken log2 fold change” value worked out at 0.0293.

For RRIRVRPPRLPRPRPRPRPVPRP, the “shrunken log2 fold change” value was found to be 0.515.

In the case of RRIRNRPPRLPRPRPRPCEQPRP, the “shrunken log2 fold change” value is -0.00776.

For the sequence RRIRGRPPRLPRPRPRPSAKPRP, the “shrunken log2 fold change” value came out at 1.12.

Turning to RRIRARPPRLPRPRPRPNWIPRP, the “shrunken log2 fold change” value worked out at 0.00102.

For the sequence RRIRNRPPRLPRPRPRPIIPPRP, the “shrunken log2 fold change” value was -0.0623.

Turning to RRIRIRPPRLPRPRPRPLSTPRP, the “shrunken log2 fold change” value is -0.599.

For RRIRARPPRLPRPRPRPLDIPRP, the “shrunken log2 fold change” value came to 0.0659.

Turning to RRIRDRPPRLPRPRPRPECQPRP, the “shrunken log2 fold change” value was -0.00804.

As to RRIRPRPPRLPRPRPRPYVAPRP, the “shrunken log2 fold change” value was -0.465.

Turning to RRIRFRPPRLPRPRPRPPPKPRP, the “shrunken log2 fold change” value is 1.58.

In the case of RRIRERPPRLPRPRPRPMQLPRP, the “shrunken log2 fold change” value was determined as 0.0995.

The record behind these values is the supplement of paper PMC9112550, “Optimization of the antimicrobial peptide Bac7 by deep mutational scanning” (BMC Biology, 2022).
